Laboratory results reported in PMC7484307 (Archives of biochemistry and biophysics, 2020).

Target: the molecule itself
Assay: AUC

B1: His-tagged ALDH9A1 (aldehyde dehydrogenase 9A1) (enzyme, human, UniProt P49189 1-494, looked up)
chain: MSTGTFVVSQPLNYRGGARVEPADASGTEKAFEPATGRVIATFTCSGEKEVNLAVQNAKAAFKIWSQKSGMERCRILLEAARIIREREDEIATMECINNGKSIFEARLDIDISWQCLEYYAGLAASMAGEHIQLPGGSFGYTRREPLGVCVGIGAWNYPFQIASWKSAPALACGNAMVFKPSPFTPVSALLLAEIYSEAGVPPGLFNVVQGGAATGQFLCQHPDVAKVSFTGSVPTGMKIMEMSAKGIKPVTLELGGKSPLIIFSDCDMNNAVKGALMANFLTQGQVCCNGTRVFVQKEILDKFTEEVVKQTQRIKIGDPLLEDTRMGPLINRPHLERVLGFVKVAKEQGAKVLCGGDIYVPEDPKLKDGYYMRPCVLTNCRDDMTCVKEEIFGPVMSILSFDTEAEVLERANDTTFGLAAGVFTRDIQRAHRVVAELQAGTCFINNYNVSPVELPFGGYKKSGFGRENGRVTIEYYSQLKTVCVEMGDVESAF
stoichiometry N: 4
